Test results reported in US20240270846A1 (published 2024).
Changes are numbered by the printed parent chain. Where no end group is shown, it is not given here.

T1: biotinylated CD3 epsilon epitope peptide (UniProt P07766 22-48, biotinylated)
T1 chain: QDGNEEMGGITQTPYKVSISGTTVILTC

T2: biotin-labeled cynomolgus monkey CD137 fused to human IgG1 Fc fragment (cynomolgus monkey, UniProt Q07011 24-186 (human entry), limits assumed, biotin-labeled)
T2 construct: also called cyno CD137-Fc; not shown: human IgG1 Fc fragment
T2 chain: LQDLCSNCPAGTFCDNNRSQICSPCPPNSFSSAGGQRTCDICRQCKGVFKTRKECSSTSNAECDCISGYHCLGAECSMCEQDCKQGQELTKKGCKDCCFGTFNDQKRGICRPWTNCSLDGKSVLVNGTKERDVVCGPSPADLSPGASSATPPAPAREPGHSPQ

T3: biotin-labeled CD3 epsilon peptide antigen (human, also: biotin-labeled, position not given here)
T3 construct: Peptide of CD3 epsilon; also called CD3 peptide
T3 peptide: QDGNEEMGGITQTPY

B1: NNS6f73 (CE115HA340 with WVVGVR inserted between Kabat positions 99 and 100), one-arm antibody (antibody, V domains shown)
VH: QVQLVESGGGLVQPGRSLRLSCAASGFTFSNAWMHWVRQAPGKGLEWVAQIKDKSNNYATYYAESVKGRFTISRDDSKNSIYLQMNSLKTEDTAVYYCRYVHYAAWVVGVRYYGVDAWGQGTTVTVSS
VL: DIVMTQSPLSLPVTPGEPASISCRSSQSLVHSNRNTYLHWYQQKPGQAPRLLIYKVSNRFSGVPDRFSGSGSGTDFTLKISRVEAEDVGVYYCGQGTQVPYTFGQGTKLEIKR
B2: anti-human CD137 antibody described in WO2005/035584A1 (abbreviated as B) (antibody, V domains shown)
VH: QVQLQQWGAGLLKPSETLSLTCAVYGGSFSGYYWSWIRQSPEKGLEWIGEINHGGYVTYNPSLESRVTISVDTSKNQFSLKLSSVTAADTAVYYCARDYGPGNYDWYFDLWGRGTLVTVSS
VL: EIVLTQSPATLSLSPGERATLSCRASQSVSSYLAWYQQKPGQAPRLLIYDASNRATGIPARFSGSGSGTDFTLTISSLEPEDFAVYYCQQRSNWPPALTFGGGTKVEIK
notes: Control antibody; also called control anti-CD137 antibody
B3: DADU01_3#002 (antibody, human IgG1, V domains shown)
VH: QVQLVESGGGLVQPGRSLRLSCAASGFTFSNAWMHWVRQAPGKGLEWVAQIKDKQNLYNAYYAESVKGRFTISRDDSKNSIYLQMNSLKTEDTAVYYCHYVHYASASTVLPAFGVDAWGQGTTVTVSS
VL: B1 VL
notes: also called dBBDu124
B4: DXDU01_3#051 (antibody, human IgG1, V domains shown)
VH: B3 VH with K54R, Q55G, N56Q, L57Q, E64P, T108S, A112G, F113Y
VL: B1 VL
notes: also called dBBDu127
B5: DXDU01_3#094 (antibody, human IgG1, V domains shown)
VH: B3 VH with Q55G, L57A, N59A, E64P, S107A, T108G, V109G, A112G
VL: B1 VL
notes: also called dBBDu121
B6: DADU01_3#018 (antibody, human IgG1, V domains shown)
VH: B3 VH with K54R, Q55A, L57S, E64P, A104S, S105A, V109L, A112S
VL: B1 VL
notes: also called dBBDu123
B7: DXDU01_3#019 (antibody, human IgG1, V domains shown)
VH: QVQLVESGGGLVQPGRSLRLSCAASGFTFSIAWMHWVRQAPGKGLEWVAQIKDKVNGYTAYYAESVKGRFTISRDDSKNSIYLQMNSLKTEDTAVYYCRYVHYAAYYDVLGYGGVDAWGQGTTVTVSS
VL: B1 VL
notes: also called dBBDu125
B8: DADU01_3#001 (antibody, human IgG1, V domains shown)
VH: B7 VH with K54R, G57A, T59E, E64P, A105S, V109L
VL: B1 VL
notes: also called dBBDu_126; dBBDu126
B9: DADU01_3#002 (antibody, human IgG1, V domains shown)
VH: B3 VH
VL: DIVMTQSPLSLPVTPGEPASISCRSSQSLVHSNRNTYLHWYQQKPGQAPRLLIYKVSNRFSGVPDRFSGSGSGTDFTLKISRVEAEDVGVYYCGQGTQVPYTFGQGTKLEIK
notes: IgG: VH joined to human IgG1 CH1-Fc; also called dBBDu124
B10: DADU01_3#001 (antibody, human IgG1, V domains shown)
VH: B7 VH with K54R, G57A, T59E, E64P, A105S, V109L
VL: B9 VL
notes: IgG: VH joined to human IgG1 CH1-Fc; also called dBBDu_126; dBBDu126
B11: DXDU01_3#094 (antibody, human IgG1, V domains shown)
VH: B3 VH with Q55G, L57A, N59A, E64P, S107A, T108G, V109G, A112G
VL: B9 VL
notes: IgG: VH joined to human IgG1 CH1-Fc; also called dBBDu121
B12: DXDU01_3#051 (antibody, human IgG1, V domains shown)
VH: B3 VH with K54R, Q55G, N56Q, L57Q, E64P, T108S, A112G, F113Y
VL: B9 VL
notes: IgG: VH joined to human IgG1 CH1-Fc; also called dBBDu127
B13: DXDU01_3#072 (antibody, human IgG1, V domains shown)
VH: B3 VH with K54R, Q55S, N56Q, N59A, E64P, P111G, F113Y
VL: B9 VL
notes: IgG: VH joined to human IgG1 CH1-Fc; also called dBBDu122
B14: DADU01_3#018 (antibody, human IgG1, V domains shown)
VH: B3 VH with K54R, Q55A, L57S, E64P, A104S, S105A, V109L, A112S
VL: B9 VL
notes: IgG: VH joined to human IgG1 CH1-Fc; also called dBBDu123
B15: DXDU01_3#019 (antibody, human IgG1, V domains shown)
VH: B7 VH
VL: B9 VL
notes: IgG: VH joined to human IgG1 CH1-Fc; also called dBBDu125
B16: DXDU01_3#072 (antibody, human IgG1, V domains shown)
VH: B3 VH with K54R, Q55S, N56Q, N59A, E64P, P111G, F113Y
VL: B1 VL
notes: also called dBBDu122

Target: T1, biotinylated CD3 epsilon epitope peptide
Assay: SPR (Biacore); biotinylated CD3 epsilon epitope peptide on chip via streptavidin, antibody as analyte

Work on B1 yielded a Kd of 26 nM.

Target: T4, biotin-labeled human CD137 fused to human IgG1 Fc fragment (human CD137-Fc) (human, biotin-labeled)
T4 construct: also called biotin-human CD137-Fc
Assay: competitive bead ELISA, biotin-human CD137-Fc on beads; free CD3e 62.5 pmol against free Fc 62.5 pmol

In order of rising Signal decrease:
1. B2  0.94%
2. B8  81.3%
3. B5  91.1%
4. B4  91.6%
5. B6  92.3%
6. B7  92.5%
7. B3  93.6%

Target: T2, biotin-labeled cynomolgus monkey CD137 …
Assay: bead ELISA; RLU on cyno CD137-Fc divided by RLU on human Fc

In order of falling “S/N ratio cyno CD137-Fc/Fc” value:
1. B11  8.09
2. B9  5.6
3. B12  3.73
4. B14  3.27
5. B13  1.56
6. B15  1.56
7. B10  0.687

Target: T5, biotin-labeled human CD137 fused to human IgG1 Fc fragment (human, biotin-labeled)
T5 construct: also called human CD137-Fc; biotin-human CD137-Fc
Assay: bead ELISA; RLU on human CD137-Fc divided by RLU on human Fc

In order of falling “S/N ratio human CD137-Fc/Fc” value:
1. B10  54.1
2. B15  23.8
3. B9  20.3
4. B14  17.3
5. B12  13.1
6. B11  10.2
7. B13  6.58

Target: T4, biotin-labeled human CD137 fused to …
Assay: competitive bead ELISA, biotin-human CD137-Fc on beads, 100 ng IgG, competitor free CD3 epsilon peptide 62.5 pmol

In order of rising “ELISA signal with Free CD3e 62.5 pmol” value:
1. B6  9020
2. B5  9660
3. B3  9970
4. B4  10800
5. B7  12800
6. B8  15100
7. B2  183000

Target: T3, biotin-labeled CD3 epsilon peptide …
Assay: bead ELISA, biotin-CD3 epsilon peptide on streptavidin beads, 100 ng IgG

In order of rising “RLU, CD3 peptide” value:
1. B5  165000 RLU
2. B4  169000 RLU
3. B3  174000 RLU
4. B16  177000 RLU
5. B6  182000 RLU
6. B7  191000 RLU
7. B8  198000 RLU

In order of rising “S/N ratio CD3 peptide/non coating” value:
1. B5  141
2. B4  145
3. B8  146
4. B16  148
5. B6  149
6. B3  156
7. B7  161

Target: T5, biotin-labeled human CD137 fused to …
Assay: bead ELISA (chemiluminescence), purified IgG on biotin labeled human CD137-Fc on streptavidin beads

In order of falling RLU:
1. B10  95300 RLU
2. B15  77800 RLU
3. B9  39100 RLU
4. B12  38100 RLU
5. B14  32800 RLU
6. B11  24200 RLU
7. B13  14100 RLU

Target: T2, biotin-labeled cynomolgus monkey CD137 …
Assay: bead ELISA (chemiluminescence), purified IgG on biotin labeled cyno CD137-Fc on streptavidin beads

In order of falling RLU:
1. B11  19100 RLU
2. B12  10900 RLU
3. B9  10800 RLU
4. B14  6200 RLU
5. B15  5090 RLU
6. B13  3350 RLU
7. B10  1210 RLU

Target: T4, biotin-labeled human CD137 fused to …
Assay: competitive bead ELISA, biotin-human CD137-Fc on beads, 100 ng IgG, control competitor free human Fc 62.5 pmol

In order of rising “ELISA signal with Free Fc 62.5 pmol” value:
1. B8  81000
2. B5  108000
3. B6  117000
4. B4  128000
5. B3  155000
6. B7  172000
7. B2  184000
